Molecular target: GAL4-HSF2N96C238 (HSF2 deletion mutant fused with the yeast GAL4-BD derived from pM) (yeast; human) (UniProt P04386)
Experiment: cell-based or functional assay

Substance: VP16-HSF2BP (HSF2BP fused with the VP16 transcriptional activation domain derived from pVP16) (from UniProt O75031 1-334)
- luciferase reporter activity in two-hybrid assay in K562 cells (induction fold against control VP16): 11 fold
